± gives the standard deviation of the averaged measurements.
Legend:
[1] = tested on: VchCAST RNA-guided transposition machinery (E. coli BL21(DE3) host, lacZ target); test: relative integration efficiency (T-LR orientation) vs wild-type transposon end (log2 (normalized fold change)); transposon end mutated: right end (5 bp flank + 75 bp right end); higher = more efficient transposition
Method in brief: (§1)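 Barcoded pools of 1549 left-end or 1849 right-end transposon variants were cloned into a pUC57 mini-transposon donor. Each pool was co-transformed with a T7-driven effector plasmid (CRISPR array, tniQ-cas8-cas7-cas6, tnsA-tnsB-tnsC) into E. coli BL21(DE3) and plated with 0.1 mM IPTG at 37°C for 18 h. Input plasmids and genomic integration junctions were PCR-amplified and Illumina-sequenced, with two biological output replicates and four wild-type barcodes as reference. Relative integration efficiency is output/input barcode abundance fold change, normalised to wild-type barcodes and log-transformed.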

[2] = tested on: VchCAST RNA-guided transposition machinery (E. coli BL21(DE3) host, lacZ target); test: relative integration efficiency (T-RL orientation) vs wild-type transposon end (log2 (normalized fold change)); transposon end mutated: right end (5 bp flank + 75 bp right end); higher = more efficient transposition
Method in brief: as §1

ACATTTGTTGATACAACCATAAAGTGATATTTACAACCATAAGTTGATATTTTTCACACCCATAAATTGATATTGCCTCTGATCATAGTCAGACCAACATTGCTACGACCCGTATTCGCACCGACAC
relative integration efficiency (log2) [1]: 0.319 ± 0.19
relative integration efficiency (log2) [2]: -0.0454 ± 0.018

ACATTTGTTGATACAACCATAAAGTGATATTTACAACCATAAGTTGATATTTTTCAGTGGGTATTTAACTATAACGCTCTGATCATAGTCAGACCAACATTGCTACGACCCGTATTCGCACCGACAC
relative integration efficiency (log2) [1]: 2.73 ± 0.16
relative integration efficiency (log2) [2]: -0.682 ± 0.18

ACATTTGTTGATACAACCATAAAGTGATATTTACAACCATATATTGATATCTCTCACAACCATAAAATGATAATTACTCTGATCATAGTCAGACCAACATTGCTACGACCCGTATTCGCACCGACAC
relative integration efficiency (log2) [1]: -0.162 ± 0.091
relative integration efficiency (log2) [2]: -0.337 ± 0.17

ACATTTGTTGATACAACCATAAAGTGATATTTACAACCATATATTGATATCTCTCACAACCATAAAGTGATATTTACTCTGATCATAGTCAGACCAACATTGCTACGACCCGTATTCGCACCGACAC
relative integration efficiency (log2) [1]: -0.115 ± 0.5
relative integration efficiency (log2) [2]: -0.357 ± 0.21

ACATTTGTTGATACAACCATAAAGTGATATTTACAACCATATATTGATATCTCTCACAACCATAAGTTGATATTTTCTCTGATCATAGTCAGACCAACATTGCTACGACCCGTATTCGCACCGACAC
relative integration efficiency (log2) [1]: 0.252 ± 0.15
relative integration efficiency (log2) [2]: -0.0164 ± 0.24

ACATTTGTTGATACAACCATAAAGTGATATTTACAACCATATATTGATATCTCTCACAACCATATATTGATATCTCCTCTGATCATAGTCAGACCAACATTGCTACGACCCGTATTCGCACCGACAC
relative integration efficiency (log2) [1]: 0.32 ± 0.11
relative integration efficiency (log2) [2]: -0.415 ± 0.28

ACATTTGTTGATACAACCATAAAGTGATATTTACAACCATATATTGATATCTCTCACACCCATAAATTGATAATTACTCTGATCATAGTCAGACCAACATTGCTACGACCCGTATTCGCACCGACAC
relative integration efficiency (log2) [1]: 0.444 ± 0.39
relative integration efficiency (log2) [2]: 0.065 ± 0.054

ACATTTGTTGATACAACCATAAAGTGATATTTACAACCATATATTGATATCTCTCACACCCATAAATTGATATTGCCTCTGATCATAGTCAGACCAACATTGCTACGACCCGTATTCGCACCGACAC
relative integration efficiency (log2) [1]: 0.352 ± 0.16
relative integration efficiency (log2) [2]: -0.378 ± 0.18

ACATTTGTTGATACAACCATAAAGTGATATTTACAACCATATATTGATATCTCTCAGTGGGTATTTAACTATAACGCTCTGATCATAGTCAGACCAACATTGCTACGACCCGTATTCGCACCGACAC
relative integration efficiency (log2) [1]: 2.6 ± 0.17
relative integration efficiency (log2) [2]: -1.32 ± 0.41

ACATTTGTTGATACAACCATAAAGTGATATTTACACCCATAAATTGATAATTATCACAACCATAAAATGATAATTACTCTGATCATAGTCAGACCAACATTGCTACGACCCGTATTCGCACCGACAC
relative integration efficiency (log2) [1]: -0.112 ± 0.54
relative integration efficiency (log2) [2]: 0.256 ± 0.0071

ACATTTGTTGATACAACCATAAAGTGATATTTACACCCATAAATTGATAATTATCACAACCATAAAGTGATATTTACTCTGATCATAGTCAGACCAACATTGCTACGACCCGTATTCGCACCGACAC
relative integration efficiency (log2) [1]: -0.0182 ± 0.15
relative integration efficiency (log2) [2]: -0.155 ± 0.041

ACATTTGTTGATACAACCATAAAGTGATATTTACACCCATAAATTGATAATTATCACAACCATAAGTTGATATTTTCTCTGATCATAGTCAGACCAACATTGCTACGACCCGTATTCGCACCGACAC
relative integration efficiency (log2) [1]: -0.245 ± 0.3
relative integration efficiency (log2) [2]: -0.313 ± 0.23

ACATTTGTTGATACAACCATAAAGTGATATTTACACCCATAAATTGATAATTATCACAACCATATATTGATATCTCCTCTGATCATAGTCAGACCAACATTGCTACGACCCGTATTCGCACCGACAC
relative integration efficiency (log2) [1]: -0.0754 ± 0.42
relative integration efficiency (log2) [2]: -0.382 ± 0.084

ACATTTGTTGATACAACCATAAAGTGATATTTACACCCATAAATTGATAATTATCACACCCATAAATTGATAATTACTCTGATCATAGTCAGACCAACATTGCTACGACCCGTATTCGCACCGACAC
relative integration efficiency (log2) [1]: -0.191 ± 0.54
relative integration efficiency (log2) [2]: 0.112 ± 0.071

ACATTTGTTGATACAACCATAAAGTGATATTTACACCCATAAATTGATAATTATCACACCCATAAATTGATATTGCCTCTGATCATAGTCAGACCAACATTGCTACGACCCGTATTCGCACCGACAC
relative integration efficiency (log2) [1]: -0.336 ± 0.44
relative integration efficiency (log2) [2]: -0.207 ± 0.081

ACATTTGTTGATACAACCATAAAGTGATATTTACACCCATAAATTGATAATTATCAGTGGGTATTTAACTATAACGCTCTGATCATAGTCAGACCAACATTGCTACGACCCGTATTCGCACCGACAC
relative integration efficiency (log2) [1]: 2.57 ± 0.054
relative integration efficiency (log2) [2]: -0.826 ± 0.22

ACATTTGTTGATACAACCATAAAGTGATATTTACACCCATAAATTGATATTGCTCACAACCATAAAATGATAATTACTCTGATCATAGTCAGACCAACATTGCTACGACCCGTATTCGCACCGACAC
relative integration efficiency (log2) [1]: 0.169 ± 0.17
relative integration efficiency (log2) [2]: -0.254 ± 0.19

ACATTTGTTGATACAACCATAAAGTGATATTTACACCCATAAATTGATATTGCTCACAACCATAAAGTGATATTTACTCTGATCATAGTCAGACCAACATTGCTACGACCCGTATTCGCACCGACAC
relative integration efficiency (log2) [1]: 0.171 ± 0.15
relative integration efficiency (log2) [2]: -0.237 ± 0.17

ACATTTGTTGATACAACCATAAAGTGATATTTACACCCATAAATTGATATTGCTCACAACCATAAGTTGATATTTTCTCTGATCATAGTCAGACCAACATTGCTACGACCCGTATTCGCACCGACAC
relative integration efficiency (log2) [1]: 0.0642 ± 0.26
relative integration efficiency (log2) [2]: -0.138 ± 0.13

ACATTTGTTGATACAACCATAAAGTGATATTTACACCCATAAATTGATATTGCTCACAACCATATATTGATATCTCCTCTGATCATAGTCAGACCAACATTGCTACGACCCGTATTCGCACCGACAC
relative integration efficiency (log2) [1]: 0.671 ± 0.21
relative integration efficiency (log2) [2]: -0.534 ± 0.18

ACATTTGTTGATACAACCATAAAGTGATATTTACACCCATAAATTGATATTGCTCACACCCATAAATTGATAATTACTCTGATCATAGTCAGACCAACATTGCTACGACCCGTATTCGCACCGACAC
relative integration efficiency (log2) [1]: 0.595 ± 0.26
relative integration efficiency (log2) [2]: -0.232 ± 0.12

ACATTTGTTGATACAACCATAAAGTGATATTTACACCCATAAATTGATATTGCTCACACCCATAAATTGATATTGCCTCTGATCATAGTCAGACCAACATTGCTACGACCCGTATTCGCACCGACAC
relative integration efficiency (log2) [1]: 0.438 ± 0.27
relative integration efficiency (log2) [2]: -0.333 ± 0.062

ACATTTGTTGATACAACCATAAAGTGATATTTACACCCATAAATTGATATTGCTCAGTGGGTATTTAACTATAACGCTCTGATCATAGTCAGACCAACATTGCTACGACCCGTATTCGCACCGACAC
relative integration efficiency (log2) [1]: 2.56 ± 0.28
relative integration efficiency (log2) [2]: -0.797 ± 0.16

ACATTTGTTGATACAACCATAAATACTTAATTACACCCATAAATTGATAATTATCACACCCATAAATTGATATTGCCTCTGATCATAGTCAGACCAACATTGCTACGACCCGTATTCGCACCGACAC
relative integration efficiency (log2) [1]: -2.42 ± 0.21
relative integration efficiency (log2) [2]: -2.25 ± 0.17

ACATTTGTTGATACAACCATAAATAGATAATTACACCCATAAATTGATAATTATCACACCCATAAATTGATATTGCCTCTGATCATAGTCAGACCAACATTGCTACGACCCGTATTCGCACCGACAC
relative integration efficiency (log2) [1]: -0.506 ± 0.44
relative integration efficiency (log2) [2]: -0.642 ± 0.046

ACATTTGTTGATACAACCATAAATTGATAATTACACCCATAAAATGATAATTATCACACCCATAAAATGATATTGCCTCTGATCATAGTCAGACCAACATTGCTACGACCCGTATTCGCACCGACAC
relative integration efficiency (log2) [1]: -0.368 ± 0.16
relative integration efficiency (log2) [2]: -0.12 ± 0.2

ACATTTGTTGATACAACCATAACATGATAATTACACCCATAACTTGATAATTATCACACCCATAACTTGATATTGCCTCTGATCATAGTCAGACCAACATTGCTACGACCCGTATTCGCACCGACAC
relative integration efficiency (log2) [1]: -0.127 ± 0.35
relative integration efficiency (log2) [2]: -0.3313 ± 0.00055

ACATTTGTTGATACAACCATAACCGTATAATTACACCCATAAATTGATAATTATCACACCCATAAATTGATATTGCCTCTGATCATAGTCAGACCAACATTGCTACGACCCGTATTCGCACCGACAC
relative integration efficiency (log2) [1]: -1.78 ± 0.49
relative integration efficiency (log2) [2]: -1.41 ± 0.21

ACATTTGTTGATACAACCATAACCGTCGCCGGCACAAACGCCCGGTCGCCGGCGACACAAACGCCCGGTCGCGGTAAGAGGATCATAGTCAGACCAACATTGCTACGACCCGTATTCGCACCGACAC
relative integration efficiency (log2) [1]: -6.09 ± 0.56
relative integration efficiency (log2) [2]: -7.77 ± 0.98

ACATTTGTTGATACAACCATAACCTGATAATTACACCCATAAATTGATAATTATCACACCCATAAATTGATATTGCCTCTGATCATAGTCAGACCAACATTGCTACGACCCGTATTCGCACCGACAC
relative integration efficiency (log2) [1]: -0.337 ± 0.089
relative integration efficiency (log2) [2]: -0.321 ± 0.01

ACATTTGTTGATACAACCATAACCTGATAATTACACCCATAACGTGATAATTATCACACCCATAACGTGATATTGCCTCTGATCATAGTCAGACCAACATTGCTACGACCCGTATTCGCACCGACAC
relative integration efficiency (log2) [1]: -0.339 ± 0.3
relative integration efficiency (log2) [2]: -0.513 ± 0.02

ACATTTGTTGATACAACCATAAGTTGATATTTTCAACCATAAAATGATAATTATCACAACCATAAAATGATAATTACTCTGATCATAGTCAGACCAACATTGCTACGACCCGTATTCGCACCGACAC
relative integration efficiency (log2) [1]: -0.774 ± 0.049
relative integration efficiency (log2) [2]: -0.00738 ± 0.052

ACATTTGTTGATACAACCATAAGTTGATATTTTCAACCATAAAATGATAATTATCACAACCATAAAGTGATATTTACTCTGATCATAGTCAGACCAACATTGCTACGACCCGTATTCGCACCGACAC
relative integration efficiency (log2) [1]: -0.26 ± 0.094
relative integration efficiency (log2) [2]: 0.0134 ± 0.036

ACATTTGTTGATACAACCATAAGTTGATATTTTCAACCATAAAATGATAATTATCACAACCATAAGTTGATATTTTCTCTGATCATAGTCAGACCAACATTGCTACGACCCGTATTCGCACCGACAC
relative integration efficiency (log2) [1]: -0.119 ± 0.45
relative integration efficiency (log2) [2]: -0.233 ± 0.067

ACATTTGTTGATACAACCATAAGTTGATATTTTCAACCATAAAATGATAATTATCACAACCATATATTGATATCTCCTCTGATCATAGTCAGACCAACATTGCTACGACCCGTATTCGCACCGACAC
relative integration efficiency (log2) [1]: 0.0384 ± 0.016
relative integration efficiency (log2) [2]: -0.078 ± 0.041
